Source: patent publication US20230011916A1, “METHODS OF CANCER TREATMENT USING ANTI-OX40 ANTIBODIES IN COMBINATION WITH PI3 KINASE DELTA INHIBITORS” (BEIGENE, LTD., priority 2019, published 2023)

Molecular target: mouse OX40-His (Cat: ab221028, Abcam) (mouse) (UniProt P47741)
Experiment: ELISA on coated mouse OX40-His

Sequence of mouse OX40-His (Cat: ab221028, Abcam) (mouse) (P47741 20-211 limits assumed): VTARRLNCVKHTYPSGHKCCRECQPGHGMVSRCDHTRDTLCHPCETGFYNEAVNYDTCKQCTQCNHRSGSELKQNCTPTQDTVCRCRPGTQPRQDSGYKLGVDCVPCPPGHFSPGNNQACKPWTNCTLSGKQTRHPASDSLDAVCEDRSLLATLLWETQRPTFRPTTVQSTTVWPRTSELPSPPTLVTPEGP

B1: 1A7.gr1 (antibody, from another filing, V domains shown)
VH: EVQLVQSGAEVKKPGASVKVSCKASGYTFTDSYMSWVRQAPGQGLEWIGDMYPDNGDSSYNQKFRERVTITRDTSTSTAYLELSSLRSEDTAVYYCVLAPRWYFSVWGQGTLVTVSS
VL: DIQMTQSPSSLSASVGDRVTITCRASQDISNYLNWYQQKPGKAPKLLIYYTSRLRSGVPSRFSGSGSGTDFTLTISSLQPEDFATYYCQQGHTLPPTFGQGTKVEIK
EC50: 0.11 µg/mL
